Test results as given in patent publication US9383360B2, “Compositions and methods relating to lyme disease” (The United States of America, as represented by the …, priority 2012, dated 2016).

Molecular target: T1, Collagen type II (Homo sapiens, UniProt P02458)
T1 construct: Native collagen II and recombinant tenascin C were not degraded by BbHtrA; from tissue
Assay: BbHtrA proteolysis assay, collagen type II substrate
Format: biochemical
Settings: SDS-PAGE, silver stain
Description: For proteolysis assays described in Examples herein, purified protein substrates (200-600 nM) and proteases (100-150 nM) were diluted in assay buffer (50 mM HEPES, pH 7.4, 5 mM CaCl2) and incubated overnight at 37° C. Samples were boiled for 4 minutes to inactivate the proteases. Proteoglycans were deglycosylated by overnight incubation at 37° C. with 0.01 U chondroitinase ABC (Seikagaku). Reactions were stopped by the addition of SDS/PAGE sample buffer, boiled for 4 minutes, and electrophoresed on pre-cast Tris-glycine gels (BioRad). Reaction products were visualized by silver staining.
Purified proteins were incubated with BbHtrA or BbHtrA^S226A as described herein. HtrA (also known as DegP) proteases belong to the family of serine proteases which contain a highly reactive serine residue in their active site. This serine (Ser210 in DegP) is part of the canonical His-Ser-Asp catalytic triad and mutation of the catalytic serine abolishes proteolytic activity (Skorko-Glonek et al., 1995). In BbHtrA, residues His119, Ser226 and Asp149 form the catalytic triad and mutation of serine 226 to alanine abolished proteolytic activity as expected (FIG. 5).
Reaction products were separated by SDS-PAGE and silver stained. Native collagen II and recombinant tenascin C were not degraded by BbHtrA indicating selectivity for proteoglycans, E-cadherin and fibronectin. […]

T1 sequence (P02458 182-1241 limits assumed): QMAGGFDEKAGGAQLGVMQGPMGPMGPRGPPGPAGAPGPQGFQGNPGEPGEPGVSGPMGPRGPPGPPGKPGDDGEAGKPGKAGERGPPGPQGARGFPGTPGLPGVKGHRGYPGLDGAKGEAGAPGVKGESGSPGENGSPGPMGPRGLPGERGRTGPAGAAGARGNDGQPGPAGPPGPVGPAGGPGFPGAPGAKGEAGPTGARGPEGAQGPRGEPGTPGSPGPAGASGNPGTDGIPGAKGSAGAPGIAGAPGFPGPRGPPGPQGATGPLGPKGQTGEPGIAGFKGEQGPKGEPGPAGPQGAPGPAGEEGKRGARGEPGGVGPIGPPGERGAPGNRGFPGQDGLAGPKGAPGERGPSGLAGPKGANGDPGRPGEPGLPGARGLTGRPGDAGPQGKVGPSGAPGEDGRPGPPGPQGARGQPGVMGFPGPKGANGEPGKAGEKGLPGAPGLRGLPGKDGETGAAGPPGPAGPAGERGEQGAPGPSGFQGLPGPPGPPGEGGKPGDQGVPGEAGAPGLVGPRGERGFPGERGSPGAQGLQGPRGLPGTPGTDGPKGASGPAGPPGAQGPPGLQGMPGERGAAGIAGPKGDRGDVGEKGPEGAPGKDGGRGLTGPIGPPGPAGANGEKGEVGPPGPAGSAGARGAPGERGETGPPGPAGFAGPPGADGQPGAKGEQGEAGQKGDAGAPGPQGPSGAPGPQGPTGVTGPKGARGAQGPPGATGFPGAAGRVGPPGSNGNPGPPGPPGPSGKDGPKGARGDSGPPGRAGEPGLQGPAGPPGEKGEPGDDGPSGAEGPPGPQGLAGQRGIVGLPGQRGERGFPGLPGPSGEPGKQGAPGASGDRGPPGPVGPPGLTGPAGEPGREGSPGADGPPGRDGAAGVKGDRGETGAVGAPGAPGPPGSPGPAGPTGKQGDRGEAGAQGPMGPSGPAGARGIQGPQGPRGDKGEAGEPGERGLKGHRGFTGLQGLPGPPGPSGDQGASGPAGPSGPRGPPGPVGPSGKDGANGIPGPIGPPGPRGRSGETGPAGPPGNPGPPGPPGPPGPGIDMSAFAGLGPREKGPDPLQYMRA

B1: BbHtrA: Recombinant wild type B. burgdorferi HtrA serine protease, mature protein amino acids 38-474, expressed in E. coli (SEQ ID NO:1, 9) (protein, listed as Borrelia burgdorferi)
chain: EEKDNTVRALQDSFREVSKKILPSSVEVHATGVIKQSFPIPFFFFDMPEFDSERKSNWAGSGVIIGRDSQKKSLFYVVTNSHVVDKATELEVVSYDKKKHKAKLIGKDEKKDIALISFESDDATIKVADLGDSDKLEIGDWVMAVGSPFQFSFTVTAGIVSGLQRSANPNLQSRNLFIQTDAAINRGNSGGPLVNIKGEVIGINAWIASNSGGNIGLGFAIPVNNIKSTVDFFLKGKKIESAWLGISFYPLKTRDSEVLKSLGVESNDVSAAIIASLYPGSPAVKSGLRAGDIIMKVNGVSMSVFQDVTSYISDFYAGEKVNVEILRGNVKKNIEIVLAVRPKDKELSSSKMLPGFVVYPLVEDIKAQLNLRNWIKGVVVDYIDKNLASNIKMKSGDVILSVNSKSVSNLREFYDALEVGKNTYKILRGNDSFKITF
In the case of B1, the “Degradation of native collagen II” value is reported as “not degraded”.
